Experiments:
purified protein [1] = substrate: C=C(C)CCO[P@@](=O)(O)OP(=O)(O)O; assay: purified protein; details: 10 μM FPP, 0.5 mM MgCl2, pH 7.5, 30 °C, 0.02% Triton X-100, labelled compound
purified protein [2] = substrate: CC(C)=CCC/C(C)=C/CC/C(C)=C/CO[P@@](=O)(O)OP(=O)(O)O; assay: purified protein; type: biochemical, Homo sapiens; details: 100 μM IPP, 0.5 mM MgCl2, pH 7.5, 30 °C, 0.02% Triton X-100
[3] = molecular target: the molecule itself; assay: cross-linking; about 8 µM purified shcis-PT with 0.005% glutaraldehyde, room temperature, 15 min; products analysed by SDS-PAGE

| Protein | Km (purified protein [1]) | kcat (purified protein [1]) | Km (purified protein [2]) | kcat (purified protein [2]) | binding result [3] |
| --- | --- | --- | --- | --- | --- |
| shcis-PT (soluble human cis-prenyltransferase complex, DHDDS-sNgBR) (Homo sapiens) (protein, full-length DHDDS 1-333 plus cytosolic NgBR 73-293 (no transmembrane domain); co-expressed in E. coli; TRX fusions, His- and Strep-tags cut by TEV) chain 1: MSWIKEGELSLWERFCANIIKAGPMPKHIAFIMDGNRRYAKKCQVERQEGHSQGFNKLAETLRWCLNLGILEVTVYAFSIENFKRSKSEVDGLMDLARQKFSRLMEEKEKLQKHGVCIRVLGDLHLLPLDLQELIAQAVQATKNYNKCFLNVCFAYTSRHEISNAVREMAWGVEQGLLDPSDISESLLDKCLYTNRSPHPDILIRTSGEVRLSDFLLWQTSHSCLVFQPVLWPEYTFWNLFEAILQFQMNHSVLQKARDMYAEERKRQQLERDQATVTEQLLREGLQASGDAQLRRTRLHKLSARREERVQGFLQALELKRADWLARLGTASA chain 2: RGGSCLAAAHHRMRWRADGRSLEKLPVHMGLVITEVEQEPSFSDIASLVVWCMAVGISYISVYDHQGIFKRNNSRLMDEILKQQQELLGLDCSKYSPEFANSNDKDDQVLNCHLAVKVLSPEDGKADIVRAAQDFCQLVAQKQKRPTDLDVDTLASLLSSNGCPDPDLVLKFGPVDSTLGFLPWHIRLTEIVSLPSHLNISYEDFFSALRQYAACEQRLGK | 6.23 ± 1.50 µM | 0.74 ± 0.02 s⁻¹ | 0.11 ± 0.01 µM | 0.74 ± 0.02 s⁻¹ | – |
| dehydrodolichyl diphosphate synthase (DHDDS), full-length human, residues 1-333 (enzyme, UniProt Q86SQ9 1-333, looked up, human dehydrodolichyl diphosphate synthase (DHDDS), full length, residues 1-333, UniProt Q86SQ9; Cloned into pET-32b as a TRX fusion with a TEV site; tags and TRX removed by TEV protease before the final size-exclusion step; also called DHDD synthase; catalytic subunit of hcis-PT / shcis-PT / xcis-PT) MSWIKEGELSLWERFCANIIKAGPMPKHIAFIMDGNRRYAKKCQVERQEGHSQGFNKLAETLRWCLNLGILEVTVYAFSIENFKRSKSEVDGLMDLARQKFSRLMEEKEKLQKHGVCIRVLGDLHLLPLDLQELIAQAVQATKNYNKCFLNVCFAYTSRHEISNAVREMAWGVEQGLLDPSDISESLLDKCLYTNRSPHPDILIRTSGEVRLSDFLLWQTSHSCLVFQPVLWPEYTFWNLFEAILQFQMNHSVLQKARDMYAEERKRQQLERDQATVTEQLLREGLQASGDAQLRRTRLHKLSARREERVQGFLQALELKRADWLARLGTASA | – | – | – | – | binds |

Source: article PMC7573591 (Nature Communications, 2020)
